The numbers were not newly measured in publication PMC4253632, which cites them from elsewhere.

For orientation: Kd means the free concentration of one partner at which half of the binding sites on the other are occupied at equilibrium, for simple one-to-one binding.

This series deals with Syntaxin 4 (Homo sapiens) (UniProt Q12846).
UniProt Q12846, sequence (Q12846 whole entry): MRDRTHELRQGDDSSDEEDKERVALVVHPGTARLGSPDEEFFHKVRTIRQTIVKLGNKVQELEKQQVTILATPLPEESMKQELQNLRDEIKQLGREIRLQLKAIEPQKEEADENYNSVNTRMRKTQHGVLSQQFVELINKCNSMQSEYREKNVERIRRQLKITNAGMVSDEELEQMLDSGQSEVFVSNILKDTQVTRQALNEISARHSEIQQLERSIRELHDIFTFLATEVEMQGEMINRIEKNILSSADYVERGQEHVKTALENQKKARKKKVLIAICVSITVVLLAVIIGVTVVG

On to Munc18c (from UniProt O00186), for which the Kd is 30 nM.
